Legend:
[1] = target: T1, hGLP1R-MMH (N-terminal region of human GLP1R) (Homo sapiens, UniProt P43220); assay: Biacore binding kinetics (surface plasmon resonance); details: 25° C.; for Ka: association rate
T1 construct: the N-terminal ectodomain of human GLP1R expressed with a myc-myc hexahistidine tag
Procedure: The equilibrium dissociation constant (KD) for GLP1R binding to different unconjugated GLP1R monoclonal antibodies (mAbs) or to GLP1R antibody tethered drug conjugates (ATDCs) was determined using a real-time surface plasmon resonance biosensor using a Biacore 3000, Biacore S200, Biacore 4000, Biacore T-200, or a Sierra Sensor MASS-2 instrument. All binding studies were performed in 10 mM HEPES, 150 mM NaCl, 3 mM EDTA, and 0.05% v/v Surfactant Tween-20, pH 7.4 (HBS-ET) running buffer at 25° C. The Biacore CM5 sensor chip surface was first derivatized by amine coupling with human Fc specific mouse mAb (REGN2567) to capture different GLP1R mAbs or ATDCs. Different concentrations (100, 90, 33.3, 30, 11.1, 10, 3.7, 3.3 and 1.1 nM) of the N-terminal region of human GLP1R expressed with a myc-myc-hexahistidine tag (“hexahistidine tag” disclosed as SEQ ID NO: 441) (hGLP1R-MMH) prepared in HBS-ET running buffer were injected over the GLP1R mAb captured surface for 240 or 300 sec at a flow rate of 50 μL/min and their dissociation in HBS-ET running buffer was monitored for 10 minutes. At the end of each cycle, the GLP1R mAb or ATDC capture surface was regenerated using a 10 sec injection of 20 mM phosphoric acid.
The association rate (ka) and dissociation rate (kd) were determined by fitting the real-time binding sensorgrams to a 1:1 binding model with mass transport limitation using Scrubber 2.0c curve-fitting software. Binding dissociation equilibrium constant (KD) and dissociative half-life (t %2) were calculated from the kinetic rates as: […]

HEK293/CRE-Luc cells = assay: Flow cytometry cell binding, HEK293/CRE-Luc control cells (Example 18); design: species or system human; details: Table 30, control cells lacking GLP1R; for EC50: no unit printed in table (text reads values as M); for HEK293/CRE-Luc Flow S/N: signal to noise
Procedure: GLP1R agonist linker payloads were conjugated to anti-GLP1R antibodies via N-terminal heavy or light chain Glutamine (Q) tags. Several resulting anti-GLP1R-GLP1R agonist antibody tethered drug conjugates (ATDCs) and their unconjugated parental antibodies were tested for cell-based binding activity. The cell surface binding of the anti-GLP1R ATDCs to human GLP1R (HEK293/CRE-Luc/hGLP1R), cynomolgus GLP1R (HEK293/CRE-Luc/mfGLP1R), and control cells lacking expression of GLP1R (HEK293/CRE-Luc) was assessed via flow cytometry. For the assay, 61,000-230,000 cells were suspended in PBS, w/2% FBS and 0.2% sodium azide (staining buffer) in 96 well V-bottom plates and incubated for 30 minutes at 4° C. with three-fold serial dilutions of the anti-GLP1R ATDCs, non-binding control ATDCs, or unconjugated anti-GLP1R antibodies. The last well in each row of the plate served as a blank control containing only secondary antibody and was plotted as a continuation of the 3-fold serial dilution. […] Cells were then washed once and stained with a cell viability dye (Live/dead Fixable Green Dead Cell Stain Kit for 488 nm excitation, Molecular Probes cat #L34970) at 1× in PBS for 20 minutes at 4° C. Cells were washed once in staining buffer, fixed for 20 minutes at 4° C. using a 50% solution of Cytofix (BD Biosciences, Cat #554655) diluted in PBS, and washed again in staining buffer. Samples were filtered through Pall 96 well plate PP/PE mesh filter system and collected in Costar 96 well plate. Samples were run on the iQue flow cytometer (Intellicyte) and results were analyzed using Forecyte analysis software (Intellicyte) to calculate the mean fluorescent intensity (MFI) after gating for live cells. EC50 values were determined using a four-parameter logistic equation over a 10-point dose response curve (GraphPad Prism). The signal to noise (S/N) was determined by taking the ratio of the highest MFI on the dose response curve to the MFI in the secondary alone wells.

human GLP1R = target: T2, human GLP1R (Homo sapiens, UniProt P43220); assay: Flow cytometry cell binding, HEK293/CRE-Luc/hGLP1R (Example 18); details: Table 30, no unit printed in table (text b1840 reads values as M), experiments A, C, D
T2 construct: engineered to express full-length human GLP1R, cynomolgus GLP1R; expressed in transfected cells; host or cells: HEK293/CRE-Luc
T2 sequence (P43220 24-463): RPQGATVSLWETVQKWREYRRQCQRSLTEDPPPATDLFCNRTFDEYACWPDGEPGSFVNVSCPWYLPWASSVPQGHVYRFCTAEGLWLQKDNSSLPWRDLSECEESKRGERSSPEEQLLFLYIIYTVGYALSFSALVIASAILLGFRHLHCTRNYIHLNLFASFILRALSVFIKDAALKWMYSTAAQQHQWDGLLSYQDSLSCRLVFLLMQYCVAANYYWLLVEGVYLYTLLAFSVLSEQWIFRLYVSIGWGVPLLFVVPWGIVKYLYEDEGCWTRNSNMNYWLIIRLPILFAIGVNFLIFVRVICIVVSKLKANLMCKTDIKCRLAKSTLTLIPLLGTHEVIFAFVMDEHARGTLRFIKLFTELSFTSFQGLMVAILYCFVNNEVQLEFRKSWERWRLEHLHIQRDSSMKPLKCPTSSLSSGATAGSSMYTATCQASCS
Procedure: GLP1R agonist linker payloads were conjugated to anti-GLP1R antibodies via N-terminal heavy or light chain Glutamine (Q) tags. […] The cell surface binding of the anti-GLP1R ATDCs to human GLP1R (HEK293/CRE-Luc/hGLP1R), cynomolgus GLP1R (HEK293/CRE-Luc/mfGLP1R), and control cells lacking expression of GLP1R (HEK293/CRE-Luc) was assessed via flow cytometry. […] The last well in each row of the plate served as a blank control containing only secondary antibody and was plotted as a continuation of the 3-fold serial dilution. […] Samples were filtered through Pall 96 well plate PP/PE mesh filter system and collected in Costar 96 well plate. Samples were run on the iQue flow cytometer (Intellicyte) and results were analyzed using Forecyte analysis software (Intellicyte) to calculate the mean fluorescent intensity (MFI) after gating for live cells. EC50 values were determined using a four-parameter logistic equation over a 10-point dose response curve (GraphPad Prism). The signal to noise (S/N) was determined by taking the ratio of the highest MFI on the dose response curve to the MFI in the secondary alone wells.

T1 sequence (P43220 24-139 limits assumed): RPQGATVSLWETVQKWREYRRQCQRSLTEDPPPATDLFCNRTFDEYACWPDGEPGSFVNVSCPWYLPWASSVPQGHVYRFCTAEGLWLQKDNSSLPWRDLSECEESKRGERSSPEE

Row | Molecule | Ka ([1]; hGLP1R-MMH) [M⁻¹ s⁻¹] | dissociation rate constant (kd) ([1]; hGLP1R-MMH) [s⁻¹] | EC50 (HEK293/CRE-Luc cells) [nM] | HEK293/CRE-Luc Flow S/N (HEK293/CRE-Luc cells) | 90 nM hGLP1R.mmh Bound ([1]; antibody captured on anti-human Fc surface, 90 nM hGLP1R-MMH) [RU] | Kd ([1]; hGLP1R-MMH, calculated from the kinetic rates) [nM] | EC50 (human GLP1R) [nM]
1 | H2aM30341N (antibody, V domains shown) VH: QVQLQQWGAGLLKPSETLSLTCAVYGGSFSGYYWSWIRQPPGKGLEWIGEINHAGSTNYNPSLKSRITISVDTSKNQFSLKLSSVTAADTAVYYCARGWYYGSGSYHRNWFDPWGQGTLVTVSS VL: EIVLTQSPGTLSLSPGERATLSCRASQSVYYSYLAWYQQKPGQAPRLLIYGASNRATGIPDRFSGSGSGTDFTLTISRLEPEDFAVYYCQQYGNSPWTFGQGTKVEIK | 224000 | 7.74e-05 | > 100 | 11.8 | – | – | –
2 | REGN8051 (antibody, V domains shown) VH: QVQLVESGGGVGQPGRSLRLSCAASGFTFSRNAMHWVRQAPGKGLEWVAVISYDGSNKHYADSVKGRFTISRDNSKNTLYLEMNSLRVEDTAVYYCAKGGIPFDYWGQGTLVTVSS VL: DIVMTQSPLSSPVTLGQPASISCRSSQSLVHFDGNTYLSWLHQRPGQPPRLLIYKISNRFSGVPDRFSGSGAGTDFTLKISRVEPEDVGVYYCMHATQFPYTFGQGTKLEIK | 61900 | 0.000211 | > 100 | 18.0 | – | – | –
3 | H4H30439P (antibody, V domains shown) VH: QVQLVESGGGVVQPGRSLRLSCAASGFTFSGYGIHWVRQAPGKGLVWVAVIWYDGSFKYYADSVKGRFTISRDNSKNTLYLQMNSLRAEDTAVYYCARGDSSSSGRYYYYGMDVWGQGTTVTVSS VL: DIQMTQSPSSLSASVGDRVTITCRASQGIRNDLGWYQQKPGTAPKRLIFAASSLQSGVPSRFSGSGSGTEFTLTISSLQPEDFATYYCLQHNNYPPTFGGGTKVEIK | 277000 | 0.000189 | – | – | 152.4 | 0.681 | 0.769

— patent US20230330254A1 (Regeneron Pharmaceuticals, Inc., priority 2022, published 2023)
